Consider two molecules from patent US20110110959A1 (BIOSCEPTRE AUST, published 2011).

Assay [1] has as its target HLA (human). As to the kind of experiment: FACS, MCF-7 breast tumour cell line. On the technique in general: A flow cytometer gives signals particle by particle.
In assay [2] the target is HLA (human). Description: FACS, human lymphocytes.
Assay [3] deals with T1, 200 (a peptide having the sequence of the E200 region).
T1 construct: also called E200 peptide
T1 peptide: GHNYTTRNILPGLNITC
As to the kind of experiment: ELISA, coated antigen, supernatant, duplicate 1. Background: In an ELISA, binding on a coated surface is turned into a signal by an enzyme label.

Assay [4] concerns the target T2, composite peptide GHNYTTRNILPGAGAKYYKENNVEK (BSA carrier protein attached for coating of ELISA plates).
T2 construct: also called EP200/300; 200/300-peptide
T2 peptide: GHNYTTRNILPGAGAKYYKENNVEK
As to the kind of experiment: ELISA, coated antigen, supernatant, duplicate 1.

For assay [5], the target named is T3, 300 (a peptide having the sequence of the E300 region).
T3 construct: also called E300 peptide
T3 peptide: KYYKENNVEKRTLIKVF
Description: ELISA, coated antigen, supernatant, duplicate 1.

Assay [6] concerns the target T1, 200 (a peptide having the sequence of …). As to the kind of experiment: ELISA, coated antigen, supernatant, duplicate 2.
Assay [7] deals with T2, composite peptide …. Description: ELISA, coated antigen, supernatant, duplicate 2.
The target of assay [8] is T3, 300 (a peptide having the sequence of …). Description: ELISA, coated antigen, supernatant, duplicate 2.
Assay [9] concerns the target U80. As to the kind of experiment: ELISA, coated antigen, supernatant, duplicate 2.
Assay [10] concerns the target U140. As to the kind of experiment: ELISA, coated antigen, supernatant, duplicate 2.
Assay [11] deals with U80. As to the kind of experiment: ELISA, coated antigen, supernatant, duplicate 1.
Assay [12] deals with U140. Description: ELISA, coated antigen, supernatant, duplicate 1.

Turning to HLA (W6/32) Positive Control (antibody), the Mean Fluorescence Intensity (MFI) in assay [1] is 1670 MFI; in assay [2], 3900 MFI. For the same molecule, the Percent Cells Positive in assay [1] stood at 87%; in assay [2], 100%.

B1: 2A11 (antibody, V domains shown)
VH: QVQLQESGGGSVQAGGSLRLSCTASGFTLDDSDLGWYRQAPGNECELVSIIRRDGSPYHTYYPDSVKGRFTISQDNAKNTLYLQMNSLKPEDTAVYYCAADPSRYYSDYGAPGCGFNYWGQGTQVTVSS
In the case of B1, the “ELISA absorbance (405 nm, reference 490 nm)” value in assay [3] is 0.138 OD; in assay [4] it was 3.62 OD; in assay [5], 0.144 OD; in assay [6], 0.194 OD; in assay [7], 3.6 OD; in assay [8], 0.186 OD. Further, the ELISA absorbance (405 nm, reference 490 nm) came out at 0.154 OD in [9], 0.508 OD in [10], 0.181 OD in assay [11] and 0.17 OD in assay [12].
